These are literature values, as cited in publication PMC3910004.

pKd: −log10 of the molar value.

The data set has as its target T1, human interleukin-6 receptor (hIL-6R) (Homo sapiens) (UniProt P08887).
T1 sequence: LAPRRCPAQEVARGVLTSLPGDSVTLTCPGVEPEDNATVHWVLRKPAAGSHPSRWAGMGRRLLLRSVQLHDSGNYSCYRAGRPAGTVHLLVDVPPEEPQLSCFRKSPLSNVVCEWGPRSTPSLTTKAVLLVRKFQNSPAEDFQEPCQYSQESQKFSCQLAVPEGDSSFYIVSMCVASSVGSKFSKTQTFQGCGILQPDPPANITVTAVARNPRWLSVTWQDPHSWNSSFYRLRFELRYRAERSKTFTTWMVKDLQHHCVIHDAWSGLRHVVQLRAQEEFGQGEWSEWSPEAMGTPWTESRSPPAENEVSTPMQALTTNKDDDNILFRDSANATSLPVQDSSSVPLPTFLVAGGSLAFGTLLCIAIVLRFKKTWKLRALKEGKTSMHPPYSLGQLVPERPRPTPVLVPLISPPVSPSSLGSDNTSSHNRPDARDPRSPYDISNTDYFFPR
The conditions noted are these: Cell binding by flow cytometry, 50 nM conjugate, 45 min, serum-free medium, 37 °C (stated for the uptake in cytotoxicity assays); binding buffer details not in …. On the technique in general: Flow cytometry measures light scatter and fluorescence of single cells or particles in a stream.

As usually defined, the pKd is −log10 of the Kd, conventionally taken in molar units. Consider GGGGAGGCUGUGGUGAGGG [AIR-3A], for which the pKd was 8.07.
